{"source": "patent US20100113291A1", "about": "(CENTRE NATIONAL DE LA RECHERCHE SCIENTIFIQUE, priority 2006, published 2010)", "molecules": {"B1": {"name": "MabA-wt: wild-type protein MabA of Mycobacterium tuberculosis, SEQ ID NO: 1 (protein, listed as Mycobacterium tuberculosis)", "chain": "MTATATEGAKPPFVSRSVLVTGGNRGIGLAIAQRLAADGHKVAVTHRGSGAPKGLFGVECDVTDSDAVDRAFTAVEEHQGPVEVLVSNAGLSADAFLMRMTEEKFEKVINANLTGAFRVAQRASRSMQRNKFGRMIFIGSVSGSWGIGNQANYAASKAGVIGMARSIARELSKANVTANVVAPGYIDTDMTRALDERIQQGALQFIPAKRVGTPAEVAGVVSFLASEDASYISGAVIPVDGGMGMGH"}}, "assay_type": "biochemical", "conditions": "acetoacetyl-CoA and NADPH both at 100 μM"}
{"molecule": "B1", "values": [{"measurement": "Vi", "value": "0.60 ± 0.01", "unit": "µmol/min/mg"}]}
